Assay results reported in patent publication US20110172153A1.
Ends that are not written are not given here.

Target: PTH receptor, R^0 and RG conformations (species not stated at the figure legends) (Homo sapiens (Human)) (UniProt Q03431)
Assay: R0 binding affinity in vitro, table inset of FIG. 18; reference [E19],Mc-hPTH(1-34)OH

B1: [A^23,E^19],Mc-hPTH(1-34)OH (peptide)
peptide: AVAEIQLMHQRAKWLNSMERVEALRKKLQDVHNF-OH
In the case of B1, the fold reduction of binding affinity for R^0 against [E^19 Mc]PTH(1-34) is reported as 10 fold.
